Experimental data as given in CN113929781A (MABWELL SHANGHAI BIOTECHNOLOGY CO LTD; JIANGSU MAIWEIKANG …, dated 2022).

Experiments:
[1] = target: T1, 人PD-1-hFc (human, UniProt Q15116 21-167); experiment: competition ELISA, PD-1-hFc coated, competitor PD-L2-hFc-Biotin at 2 μg/mL
T1 construct: range 21-167; also called 重组人PD-1; Lot 20180329; not shown: human Fc (hFc)

[2] = target: T1, 人PD-1-hFc; experiment: competition ELISA, PD-1-hFc coated, competitor PD-L1-mFc at 1 μg/mL

T1 sequence (Q15116 21-167 limits assumed, form in doubt): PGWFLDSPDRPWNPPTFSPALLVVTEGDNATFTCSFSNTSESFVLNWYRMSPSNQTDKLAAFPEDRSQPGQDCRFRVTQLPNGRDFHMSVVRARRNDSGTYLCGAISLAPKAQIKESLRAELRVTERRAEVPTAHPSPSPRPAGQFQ

B1: h317 (antibody, V domains shown)
VH: EVQLVESGGGLVKPGGSLRLSCAASGFTFSSYDMSWVRQAPGKGLEWVATISGGGSYTYYPDSVKGRFTISRDNAKNSLYLQMNSLRAEDTAVYYCASPDSSGVAYWGQGTLVTVSS
VL: DIVMTQSPLSLPVTPGEPASITCKASQDVETVVAWYLQKPGQSPRLLIYWASTRHTGVPDRFSGSGSGTDFTLKISRVEAEDVGVYYCQQYSRYPWTFGQGTKL
Question: With B1 as the binder, how does the IC50 [1] read?
Answer: The IC50 was 1.2 nM.

Question: What about the IC50 [2] of the same binder?
Answer: The IC50 was 1.4 nM.
